In paper PMC7881117 (Nature Communications, 2021):

Biological target: T1, full-length p53 (UniProt P04637 1-393)
T1 construct: A fluorescein-labelled form was used in the ubiquitination assay only
Test: SPR; p53 binding domain of MDM2 immobilised on a CM5 chip by amine coupling; full-length p53 at 0.125 to 2 μM flowed over; BIAcore 3000
Conditions: both partners purified

T1 sequence (P04637 whole entry): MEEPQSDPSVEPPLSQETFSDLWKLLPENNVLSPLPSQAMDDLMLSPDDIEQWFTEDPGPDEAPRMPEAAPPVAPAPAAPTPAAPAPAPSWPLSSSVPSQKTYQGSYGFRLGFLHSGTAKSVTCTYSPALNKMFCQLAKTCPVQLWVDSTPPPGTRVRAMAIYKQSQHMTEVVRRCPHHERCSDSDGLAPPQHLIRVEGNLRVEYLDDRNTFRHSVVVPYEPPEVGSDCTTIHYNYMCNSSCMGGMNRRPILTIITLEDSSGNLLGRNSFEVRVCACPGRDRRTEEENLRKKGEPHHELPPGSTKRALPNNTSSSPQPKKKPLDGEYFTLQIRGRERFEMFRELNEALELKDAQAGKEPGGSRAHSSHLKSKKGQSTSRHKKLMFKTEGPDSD

B1: MDM2 p53 binding domain (domain or fragment)
chain: TLVRPKPLLLKLLKSVGAQKDTYTMKEVLFYLGQYIMTKRLYDEKQQHIVYCSNDLLGDLFGVPSFSVKEHRKIYTMIYRNLVV
- Kd: 600 ± 100 nM
